Measured values reported in the supplement of paper PMC12764529.
± gives the half width of the 95% confidence interval.

Key:
[1] = folding stability dG unfold from chymotrypsin proteolysis; higher = more stable
Outline: (§1)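 Designed mini-proteins (under 80 residues, no cysteine) in a PA-tagged cDNA display construct were digested with trypsin and chymotrypsin. Each protease was used at 11 concentrations (threefold dilutions) plus a no-protease condition, followed by sequencing. K50 was inferred by Bayesian fitting of sequencing counts, and unfolding free energy was derived against a sequence-predicted unfolded-state K50 and a shared folded-state K50, per protease or combined. Only designs with AlphaFold2 dimer inter-PAE above 15 were kept.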

[2] = folding stability dG unfold (combined trypsin and chymotrypsin); higher = more stable
Outline: as §1

[3] = folding stability dG unfold from trypsin proteolysis; higher = more stable
Outline: as §1

| Sequence | folding stability dG unfold [1] [kcal/mol] | folding stability dG unfold [2] [kcal/mol] | folding stability dG unfold [3] [kcal/mol] |
| --- | --- | --- | --- |
| SAGGSAGGSAGKKTVVIKDAEIVEVEEENGYLKVRIKVTNPDGSEEEFTFTFKPGDVIELSAGGSAGGSAGG [r11_211_TrROS_Hall] | 3.11 ± 0.059 | 2.71 ± 0.17 | 2.01 ± 0.07 |
| SAGGSAGGSAGKKVLVLSEDEIAELLGLSKEEIENMSEEEKEKLALELAKKLGIDEVIITSAGGSAGGSAGG [r11_80_TrROS_Hall] | 3.31 ± 0.094 | 3.54 ± 0.055 | 3.76 ± 0.11 |
| SAGGSAGGSAGKLKIKKVKVVKTETFTLPNGYTIKVSYVEVEVDGKKYLFKSVEIYPKKESAGGSAGGSAGG [r11_129_TrROS_Hall] | 3.09 ± 0.033 | 2.85 ± 0.15 | 2.02 ± 0.1 |
| SAGGSAGGSAGKLPPGAKVEEVFEVEIEVTYLNPDTGEEVEKEKITVRVVKVDGKLVIEFSAGGSAGGSAGG [r11_415_TrROS_Hall] | 2.79 ± 0.31 | 2.04 ± 0.25 | 1.39 ± 0.11 |
| SAGGSAGGSAGKLYIIRIKGKKIILSEDEVEKLKKKYPNAEIIPFKSKEDAEKALKKLKESAGGSAGGSAGG [r11_60_TrROS_Hall] | 2.75 ± 0.079 | 2.52 ± 0.13 | 2.16 ± 0.057 |
| SAGGSAGGSAGKMKIRVKIKRKDGKTLVIEGMSLEEIKELAEKEGFEIEKVEVVEVEPEESAGGSAGGSAGG [r11_283_TrROS_Hall] | 4.24 ± 0.13 | 4.02 ± 0.21 | 3.23 ± 0.26 |
| SAGGSAGGSAGKMLLIEIEVDGKKYLIEIEVPEGEEITPEELAKLLGIPNVKVKVYELEESAGGSAGGSAGG [r11_219_TrROS_Hall] | 3.41 ± 0.04 | 3.11 ± 0.13 | 2.47 ± 0.065 |
| SAGGSAGGSAGKMYRITVTNENGEKLEIEVPEEVKTEEELKEELKKKIPNVVEVKIEEVPSAGGSAGGSAGG [r11_311_TrROS_Hall] | 0.433 ± 0.14 | 0.377 ± 0.25 | 0.242 ± 0.096 |
| SAGGSAGGSAGKPEVEVETRLIKIDEEKGYYLRVTRVRVKNEDGSEFEFLSIEIIPKEDLSAGGSAGGSAGG [r11_51_TrROS_Hall] | 3.91 ± 0.052 | 3.56 ± 0.071 | 2.6 ± 0.098 |
| SAGGSAGGSAGKPKKKPPKPKIETKTITVTITNKDGSKTTVTATIVRNKDTNELFIRISSSAGGSAGGSAGG [r11_1024_TrROS_Hall] | 3.13 ± 0.12 | 2.98 ± 0.22 | 3.07 ± 0.16 |
| SAGGSAGGSAGKPLKVKKFEVELLVRDPETNRWYRIRAEVYRVEGLPDLFIIKLEIEELPSAGGSAGGSAGG [r11_1029_TrROS_Hall] | 4.82 ± 0.099 | 4.6 ± 0.11 | 3.96 ± 0.12 |
| SAGGSAGGSAGKPNIKKEANLEIFVTEDELEKALEIVKKLEEEGIEVKEAKIYVLKPEEGSAGGSAGGSAGG [r11_533_TrMRF] | -0.299 ± 0.39 | -0.318 ± 0.21 | -0.858 ± 0.23 |
| SAGGSAGGSAGKQPIEMWFMFPNGVAIVLRIKVDPPSPKAKIDAIEVVPVRDPDNGKWRFSAGGSAGGSAGG [r11_919_TrROS] | 1.85 ± 0.1 | 1.38 ± 0.14 | 0.566 ± 0.11 |
| SAGGSAGGSAGKTIYAPYSKIPEVIEELKKKGYEIDSIEKVPNGSYKISFKNKPIEINLGSAGGSAGGSAGG [r17_379_TrMRF] | 3.83 ± 0.048 | 3.65 ± 0.088 | 3.24 ± 0.078 |
| SAGGSAGGSAGKTYTFRVRIVDEETGEEKEIEVTAKSEEEAKKAAEELKKKYPNLKVELESAGGSAGGSAGG [r11_233_TrROS_Hall] | 3.24 ± 0.036 | 3.22 ± 0.14 | 2.98 ± 0.13 |
| SAGGSAGGSAGKVTLVFKTKEDALNAIKELAEKEGLKVKIVKIEELPNGLIKITVEIEKPSAGGSAGGSAGG [r11_304_TrROS_Hall] | 4.2 ± 0.095 | 4.22 ± 0.17 | 3.99 ± 0.25 |
| SAGGSAGGSAGKWKTITILIPNMPVEEIADRIMDKFGPGIRITEITPNKPGWFWITIIVRSAGGSAGGSAGG [r11_580_TrROS] | 3.823 ± 0.037 | 3.62 ± 0.069 | 3.29 ± 0.075 |
| SAGGSAGGSAGLAEKLRDEIRESIKGPDGLEVPDDVELLSIDVPEDSAFVEVRFPADLPVSAGGSAGGSAGG [r17_519_TrMRF] | 0.233 ± 0.02 | 0.363 ± 0.089 | 0.436 ± 0.025 |
| SAGGSAGGSAGLDNIKPEELKKLFPGYKVYLLKVEEVGGKLKVDVKILKYNPSTNTWTPESAGGSAGGSAGG [r11_20_TrMRF] | 1.59 ± 0.14 | 1.48 ± 0.11 | 1.13 ± 0.044 |
| SAGGSAGGSAGLEIKIPNGNKTITVEKTKDYYKATIYFPETGEKVEFTFPPNVSLSLLDISAGGSAGGSAGG [r11_772_TrMRF] | 1.12 ± 0.073 | 1.62 ± 0.18 | 1.98 ± 0.11 |
| SAGGSAGGSAGLPEEIADFVKEILEKAFPNVKVLEVEVEELPEGFYVVRARFEDGSEVEFPISAGGSAGGSA [r18_423_TrMRF] | 3.47 ± 0.059 | 3.88 ± 0.069 | 4.29 ± 0.091 |

| Sequence | folding stability dG unfold [1] [kcal/mol] | folding stability dG unfold [2] [kcal/mol] | folding stability dG unfold [3] [kcal/mol] |
| --- | --- | --- | --- |
| SAGGSAGGSAGLPENVKLVKVTVTITYPNGEKETIPVVAPVPVLEKLLSLPGLPVSVTDESAGGSAGGSAGG [r17_313_TrMRF] | 0.0595 ± 0.071 | 0.333 ± 0.12 | 0.465 ± 0.028 |
| SAGGSAGGSAGLPGAEKARKPKPKVKVKVTLTVLPDGTLVLRVTFEDGTTKTITLKLHPDLLSAGGSAGGSA [r18_192_TrMRF] | 3.55 ± 0.11 | 3.08 ± 0.24 | 2.37 ± 0.13 |
| SAGGSAGGSAGLPPGDYRLFPFTVTITIPPIKVKDPNGDEHEIDNLEISITIYFFVPAGDSAGGSAGGSAGG [r11_907_TrROS] | 4.58 ± 0.12 | 4.03 ± 0.34 | 3.43 ± 0.15 |
| SAGGSAGGSAGLTKPVEVEVEEDGTVTIKTLSIVPVDDGYELHEETTEIPLSPEEIAALQSAGGSAGGSAGG [r17_415_JUSTAS] | -0.158 ± 0.33 | 0.327 ± 0.17 | 0.504 ± 0.035 |
| SAGGSAGGSAGMEPPEIKVEVSSDPTPSGMKVETIKDLGKGKTIIVLKPEDGSVSTSTLESAGGSAGGSAGG [r11_55_JUSTAS] | 0.286 ± 0.13 | 0.0414 ± 0.44 | -0.0544 ± 0.19 |
| SAGGSAGGSAGMETIRLTFTVPGPDDRYYRVSVEARINPPTGEIEILRVEITPLDNPDAISAGGSAGGSAGG [r11_777_TrMRF] | 3.93 ± 0.035 | 3.69 ± 0.052 | 3.09 ± 0.12 |
| SAGGSAGGSAGMEVILLEVDSEEEAEKLVKELSEKYGYPVKVEKDPENPKLVTLTIEKPKSAGGSAGGSAGG [r11_797_JUSTAS] | 1.16 ± 0.039 | 1.36 ± 0.067 | 1.41 ± 0.066 |
| SAGGSAGGSAGMEYSIDKASGKILIKIPDEDKTWILYDPKTGEKYIFKQIGGKWYKVEKVSAGGSAGGSAGG [r11_1036_TrMRF] | 1.87 ± 0.14 | 1.91 ± 0.26 | 1.57 ± 0.058 |
| SAGGSAGGSAGMGVPPDGATLRFTYPESPSSTRTFTSPEEAAAWIAANLPPEHSVSFSPASAGGSAGGSAGG [r11_983_JUSTAS] | 0.863 ± 0.12 | 0.684 ± 0.084 | 0.25 ± 0.1 |
| SAGGSAGGSAGMITIERIPGSGKLVITITDPGSGKVLTIPFDNADPKEALAKAKELLKKLSAGGSAGGSAGG [r17_386_JUSTAS] | 3.19 ± 0.048 | 3.25 ± 0.075 | 3.25 ± 0.071 |
| SAGGSAGGSAGMKEGEKPKVKIEIDVLIEVDGKLYRVRAEAEINEDGEITIKVEIEELPDSAGGSAGGSAGG [r11_551_TrROS_Hall] | 3.65 ± 0.11 | 3.3 ± 0.12 | 2.4 ± 0.11 |
| SAGGSAGGSAGMKELEITIIDKKTGKPLKVKVTLVEVDGKLYLVIEVYKNGKPLETYVLPSAGGSAGGSAGG [r11_631_TrROS_Hall] | 3.2 ± 0.072 | 3 ± 0.18 | 2.29 ± 0.12 |
| SAGGSAGGSAGMKIEKNKDGKLRIIIYNKNGKKVKEIEMSVEEAKKLAEKNNFEIVKIEPSAGGSAGGSAGG [r11_521_TrROS_Hall] | 0.966 ± 0.41 | 1.09 ± 0.21 | 1.02 ± 0.093 |
| SAGGSAGGSAGMKIRIELPGMSPEQIEELAKLIPNVRVSITYDKETNRVYVEIEVSEEDLSAGGSAGGSAGG [r11_862_TrROS_Hall] | 3.21 ± 0.052 | 2.88 ± 0.051 | 2.38 ± 0.058 |
| SAGGSAGGSAGMKKNEKLITELTFEGPDVYVKITIEKTFDPEGNKIYFKAKIEVFAPGELSAGGSAGGSAGG [r11_237_TrMRF] | 4.06 ± 0.075 | 3.67 ± 0.1 | 2.83 ± 0.097 |
| SAGGSAGGSAGMKKTVTTSTAPDGTLTTTTTVPTPDSTTTVVTTTTDPTTGTTTTTTTANSAGGSAGGSAGG [r11_107_JUSTAS] | -0.317 ± 0.095 | -0.711 ± 0.34 | -2 ± 0.54 |
| SAGGSAGGSAGMKLTITVTFPDGTTPTFEVPPNSGDPAEVAAAIRAAHPDVVTITITPELSAGGSAGGSAGG [r11_311_JUSTAS] | 0.27 ± 0.063 | 0.448 ± 0.12 | 0.683 ± 0.039 |
| SAGGSAGGSAGMKTLKIASISTSTSPTNTTLTTVTITSEGVTTTVTFPPGTTLEEVLEQLSAGGSAGGSAGG [r11_1056_JUSTAS] | 0.678 ± 0.11 | 0.685 ± 0.1 | 0.53 ± 0.049 |
| SAGGSAGGSAGMKTSVTTPVTLPDGTPAVVTKYDGEVEIIDTGDGTSKVVPLSEVPPKLLSAGGSAGGSAGG [r11_155_JUSTAS] | 0.422 ± 0.076 | 0.604 ± 0.07 | 0.678 ± 0.035 |
| SAGGSAGGSAGMKTTTLEVSTDPSGYTTTKTKIEIINENTPSISTSTVVTAVTPPAPPIASAGGSAGGSAGG [r11_830_JUSTAS] | 0.122 ± 0.11 | 0.195 ± 0.057 | 0.133 ± 0.017 |
